Publication PMC8443799, “Structural characterization of KKT4, an unconventional microtubule-binding kinetochore protein”

T1: KKT4 full-length (KKT4 2-645) (Trypanosoma brucei, UniProt Q580Y8 2-645)
T1 sequence: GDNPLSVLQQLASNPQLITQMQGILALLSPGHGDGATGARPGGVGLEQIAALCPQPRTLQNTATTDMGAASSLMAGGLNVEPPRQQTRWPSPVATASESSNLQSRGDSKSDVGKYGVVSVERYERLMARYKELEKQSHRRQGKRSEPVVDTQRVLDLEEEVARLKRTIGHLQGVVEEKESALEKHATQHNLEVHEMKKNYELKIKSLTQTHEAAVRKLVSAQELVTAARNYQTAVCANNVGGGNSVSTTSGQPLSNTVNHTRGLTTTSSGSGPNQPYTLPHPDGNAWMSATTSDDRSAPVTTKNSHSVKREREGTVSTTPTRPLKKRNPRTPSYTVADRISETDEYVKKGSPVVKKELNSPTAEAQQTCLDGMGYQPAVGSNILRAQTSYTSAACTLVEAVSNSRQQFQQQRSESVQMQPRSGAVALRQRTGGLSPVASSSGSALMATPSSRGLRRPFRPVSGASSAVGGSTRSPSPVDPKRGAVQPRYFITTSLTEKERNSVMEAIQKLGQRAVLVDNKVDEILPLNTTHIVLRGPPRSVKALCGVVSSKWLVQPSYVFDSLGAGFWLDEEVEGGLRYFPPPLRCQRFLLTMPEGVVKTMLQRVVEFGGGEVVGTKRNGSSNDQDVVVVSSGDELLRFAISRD

B1: BA3098 50-bp CIR147 DNA probe (dsDNA)
DNA 1: CAATATGTAAGGTGTTTTGGTGTAAAACACGCATTCTTGCATAACATGCA
DNA 2: TGCATGTTATGCAAGAATGCGTGTTTTACACCAAAACACCTTACATATTG

What follows are molecules tested against Taxol-stabilised microtubules (porcine brain tubulin) (UniProt P02550) (assay: microtubule co-sedimentation assay). Conditions: parent: est. 0.90; read off a plot.
Chain of Taxol-stabilised microtubules (porcine brain tubulin) (P02550 whole entry, looked up, the tested form may be a part): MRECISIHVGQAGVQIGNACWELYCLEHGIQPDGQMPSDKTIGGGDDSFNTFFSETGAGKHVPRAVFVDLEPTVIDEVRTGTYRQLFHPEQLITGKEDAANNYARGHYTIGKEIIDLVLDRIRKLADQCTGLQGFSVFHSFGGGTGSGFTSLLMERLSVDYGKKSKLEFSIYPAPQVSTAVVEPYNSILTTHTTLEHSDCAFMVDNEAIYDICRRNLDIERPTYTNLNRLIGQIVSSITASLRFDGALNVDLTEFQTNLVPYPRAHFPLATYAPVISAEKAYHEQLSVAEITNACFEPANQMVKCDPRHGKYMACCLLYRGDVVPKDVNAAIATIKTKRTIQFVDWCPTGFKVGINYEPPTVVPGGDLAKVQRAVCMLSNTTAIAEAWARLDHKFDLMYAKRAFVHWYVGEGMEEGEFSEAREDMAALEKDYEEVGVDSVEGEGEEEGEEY
“KKT4^115–343 (microtubule-binding domain) K115E” gave an other: fraction bound of 0.67. Work on “KKT4^115–343 (microtubule-binding domain) K132E” yielded an other: fraction bound of 0.6. “KKT4^115–343 (microtubule-binding domain) K136E” showed an other: fraction bound of 0.43. Work on “KKT4^115–343 (microtubule-binding domain) K144E” yielded an other: fraction bound of 0.44. With “KKT4^115–343 (microtubule-binding domain) K154E” the other: fraction bound was 0.63. “KKT4^115–343 (microtubule-binding domain) K166E” gave an other: fraction bound of 0.85. “KKT4^115–343 (microtubule-binding domain) K179E” was tested, and the other: fraction bound was 0.77. With “KKT4^115–343 (microtubule-binding domain) K198E” the other: fraction bound was 0.8. With “KKT4^115–343 (microtubule-binding domain) K199E” the other: fraction bound was 0.78. In the case of “KKT4^115–343 (microtubule-binding domain) K204E”, the other: fraction bound is reported as 0.84. With “KKT4^115–343 (microtubule-binding domain) K206E” the other: fraction bound was 0.85. Work on “KKT4^115–343 (microtubule-binding domain) K218E” yielded an other: fraction bound of 0.89. “KKT4^115–343 (microtubule-binding domain) R123E” was tested, and the other: fraction bound was 0.23. With “KKT4^115–343 (microtubule-binding domain) R126D” the other: fraction bound was 0.46. Work on “KKT4^115–343 (microtubule-binding domain) R130D” yielded an other: fraction bound of 0.6. Molecule “KKT4^115–343 (microtubule-binding domain) R140D” has an other: fraction bound of 0.48. In the case of “KKT4^115–343 (microtubule-binding domain) R141D”, the other: fraction bound is reported as 0.43. With “KKT4^115–343 (microtubule-binding domain) R145D” the other: fraction bound was 0.55. “KKT4^115–343 (microtubule-binding domain) R164D” gave an other: fraction bound of 0.73. Work on “KKT4^115–343 (microtubule-binding domain) R167D” yielded an other: fraction bound of 0.74. In the case of “KKT4^115–343 (microtubule-binding domain) R217D”, the other: fraction bound is reported as 0.77. For “KKT4^115–343 (microtubule-binding domain) R230D”, the other: fraction bound was 0.6.

These molecules were tested against Synthetic KKT8 phosphopeptide (BA_peptide_2 (DBS1831-1)) (T. brucei) (assay: fluorescence polarisation; fluorescence anisotropy; KKT4 463-645 (from 170 μM, serially diluted 2:3) with 100 nM 5-FAM peptide probe; 25 mM HEPES pH 7.5, 50 mM NaCl, 0.5 mM TCEP; 30 min at room temperature). Conditions: not given.
“KKT4^463–645 (KKT4 BRCT domain) (domain or fragment)” was tested, and the Kd was 30 µM. In the case of KKT4^463–645 K543A (domain or fragment), the fold decrease of binding affinity against wild-type KKT4 BRCT is reported as 10 fold.

What follows are molecules tested against KKT4^2–114 (Trypanosoma brucei) (assay: SEC-MALS; KKT4 2-114 at lower concentrations; 25 mM HEPES pH 7.5, 150 mM NaCl, 0.5 mM TCEP). Conditions: not given.
With KKT4^2–114 (domain or fragment) the stoichiometry N was 3.

Each molecule was assayed against KKT4^2–114 (Trypanosoma brucei) (assay: SEC-MALS; KKT4 2-114 at higher concentrations; 25 mM HEPES pH 7.5, 150 mM NaCl, 0.5 mM TCEP). Conditions: not given.
KKT4^2–114 (domain or fragment) gave a stoichiometry N of 4.

The molecules below were run against T1, KKT4 full-length (KKT4 2-645) (assay: fluorescence anisotropy; 1 nM DNA; 25 mM HEPES pH 7.5, 50 mM NaCl, 0.5 mM TCEP, 1 nM DNA, 30 min at room temperature). Conditions: protein: recombinant; tags: SNAP-6HIS-3FLAG (pBA925; from Sf9); chain copies: 2; label: 5' 6-FAM; blunt (only one strand printed; 50-bp dsDNA).
For B1, the Kd was 11 nM.

What follows are molecules tested against SNAP-6HIS-3FLAG-KKT4 (full-length T. brucei KKT4) (Trypanosoma brucei) (assay: SEC-MALS; full-length SNAP-6HIS-3FLAG-KKT4 at lower concentrations; 25 mM HEPES pH 7.5, 340 mM NaCl, 0.5 mM TCEP). Conditions: not given.
For “SNAP-6HIS-3FLAG-KKT4 (full-length T. brucei KKT4) (natural protein)”, the stoichiometry N was 2.

Each molecule was assayed against SNAP-6HIS-3FLAG-KKT4 (full-length T. brucei KKT4) (Trypanosoma brucei) (assay: SEC-MALS; full-length SNAP-6HIS-3FLAG-KKT4 at higher concentrations; 25 mM HEPES pH 7.5, 340 mM NaCl, 0.5 mM TCEP; Superose 6 or Superdex 200 10/300). Conditions: not given.
In the case of “SNAP-6HIS-3FLAG-KKT4 (full-length T. brucei KKT4) (natural protein)”, the stoichiometry N is reported as 4.

What follows are molecules tested against KKT4^101–352 (Trypanosoma brucei) (assay: SEC-MALS; KKT4 fragments; 25 mM HEPES pH 7.5, 150 mM NaCl, 0.5 mM TCEP). Conditions: not given.
With KKT4^101–352 (domain or fragment) the stoichiometry N was 2.
